B1: V5-Par6A (wild type) [not stated] / HA-Cdc42(G12V) [not stated] (parent complex)
chain 1: MARPQRTPARSPDSIVEVKSKFDAEFRRFALPRASVSGFQEFSRLLRAVHQIPGLDVLLGYTDAHGDLLPLTNDDSLHRALASGPPPLRLLVQKRAEADSSGLAFASNSLQRRKKGLLLRPVAPLRTRPPLLISLPQDFRQVSSVIDVDLLPETHRRVRLHKHGSDRPLGFYIRDGMSVRVAPQGLERVPGIFISRLVRGGLAESTGLLAVSDEILEVNGIEVAGKTLDQVTDMMVANSHNLIVTVKPANQRNNVVRGASGRLTGPPSAGPGPAEPDSDDDSSDLVIENRQPPSSNGLSQGPPCWDLHPGCRHPGTRSSLPSLDDQEQASSGWGSRIRGDGSGFSL
chain 2: not shown

The variants in this assay derive from B1. As to the kind of experiment: co-immunoprecipitation (IP: GFP), quantified blot; HEK293T cells; HA-Cdc42(G12V) recovered in the GFP (YFP-Tuba) IP when co-expressed with the Par6A variant; n = 4; parent: 1; read off a plot.
On to chain 1 I133A, chain 1 S134A, for which the ratio to parent was roughly 0.21.

The values are drawn from publication PMC6224091 (2018).
